We go through 3 molecules from patent US20120316071A1 (published 2012).

For assay [1], the target named is T1, rHuman Erythropoietin R/Fc Chimera, CF (R&D Systems Cat#963-ER) (human, UniProt P19235 25-250).
T1 construct: Bought reagent; also called EPO R; Epo R/Fc
T1 sequence (looked up): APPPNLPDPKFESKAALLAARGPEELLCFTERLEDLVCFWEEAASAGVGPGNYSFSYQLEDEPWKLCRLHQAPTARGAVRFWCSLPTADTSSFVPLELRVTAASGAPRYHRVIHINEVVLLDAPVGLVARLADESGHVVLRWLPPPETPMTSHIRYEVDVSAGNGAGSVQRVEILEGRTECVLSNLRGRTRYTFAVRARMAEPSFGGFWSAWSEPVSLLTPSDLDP
Description: ECL multispot (MSD), antigen spotted, Fab in solution; blank spot 352.

Assay [2] addresses T2, rHuman Notch-1/Fc Chimera, CF (R&D Systems Cat#3647-TK) (human, UniProt P46531 19-526).
T2 construct: Bought reagent
Described as above.

For assay [3], the target named is T3, Recombinant Human DLL4 (R&D Systems Cat#1506-D4/CF) (human, UniProt Q9NR61 27-524).
T3 construct: Bought recombinant protein; also called delta-like protein 4; rHuman DLL4
The assay is described as above.

For assay [4], the target named is T4, rHuman ErbB2/Fc Chimera, CF (R&D Systems Cat#1129-ER) (human, UniProt P04626 23-652).
T4 construct: Bought reagent
The description is as above.

Assay [5] deals with T5, rHuman P-Cadherin/Fc Chimera, CF (R&D Systems Cat#861-PC) (human, UniProt P22223 108-654).
T5 construct: Bought reagent
The description is as above.

The target in assay [6] is T6, rHuman EGF R/Fc Chimera, CF (R&D Systems Cat#344-ER) (human, UniProt P00533 25-645).
T6 construct: Bought reagent
The assay is described as above.

Assay [7] has as its target T7, rHuman HGF R/c-MET/Fc Chimera, CF (R&D Systems Cat#358-MT/CF) (human, UniProt P08581 25-932).
T7 construct: Bought reagent; also called HGF R/Fc
The description is as above.

The target in assay [8] is T8, rHuman IGF-1 sR (insulin-like growth factor-1 soluble receptor), CF (R&D Systems Cat#391-GR) (human, UniProt P08069 31-932).
T8 construct: Bought soluble receptor
Described as above.

Assay [9] concerns the target T9, rHuman CD44/Fc Chimera, CF (R&D Systems Cat#3660-CD) (human, UniProt P16070 21-220).
T9 construct: Bought reagent
The description is as above.

Assay [10] addresses T10, rHuman HGF R/c-MET/Fc Chimera, CF (R&D Systems Cat#358-MT/CF) (human, UniProt P08581 25-932).
T10 construct: Bought recombinant protein; also called HGF R/Fc; hepatocyte growth factor receptor; Fc part of the bought chimera not given
Description: ECL multispot (MSD) assay, antigen spotted on plate; blank spot of this row 302.

Assay [11] deals with T11, rHuman CD44/Fc Chimera, CF (R&D Systems Cat#3660-CD) (human, UniProt P16070 21-220).
T11 construct: Bought recombinant protein; Fc part of the bought chimera not given
The assay is described as above.

Assay [12] has as its target T12, rHuman Erythropoietin R/Fc Chimera, CF (R&D Systems Cat#963-ER) (human, UniProt P19235 25-250).
T12 construct: Bought recombinant protein; also called EPO R; EPO R/Fc; Fc part of the bought chimera not given
T12 sequence (looked up): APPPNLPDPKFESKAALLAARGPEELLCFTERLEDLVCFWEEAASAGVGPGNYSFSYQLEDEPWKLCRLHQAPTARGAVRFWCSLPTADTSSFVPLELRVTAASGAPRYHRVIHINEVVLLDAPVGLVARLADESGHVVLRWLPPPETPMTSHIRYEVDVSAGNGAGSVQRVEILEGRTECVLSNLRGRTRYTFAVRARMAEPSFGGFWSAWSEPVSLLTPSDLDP
The assay is described as above.

Assay [13] concerns the target T13, rHuman Notch-1/Fc Chimera, CF (R&D Systems Cat#3647-TK) (human, UniProt P46531 19-526).
T13 construct: Bought recombinant protein; Fc part of the bought chimera not given
The description is as above.

Assay [14] has as its target T14, rHuman ErbB2/Fc Chimera, CF (R&D Systems Cat#1129-ER) (human, UniProt P04626 23-652).
T14 construct: Bought recombinant protein; also called human epidermal growth factor 2 receptor; Fc part of the bought chimera not given
The assay is described as above.

Assay [15] has as its target T15, rHuman P-Cadherin/Fc Chimera, CF (R&D Systems Cat#861-PC) (human, UniProt P22223 108-654).
T15 construct: Bought recombinant protein; Fc part of the bought chimera not given
The description is as above.

The target in assay [16] is T16, Recombinant Human DLL4 (R&D Systems Cat#1506-D4/CF) (human, UniProt Q9NR61 27-524).
T16 construct: Bought recombinant protein; also called delta-like protein 4; rHuman DLL4
The assay is described as above.

In assay [17] the target is T17, rHuman IGF-1 sR, (IGF-1 sR), CF (R&D Systems Cat#391-GR) (human, UniProt P08069 31-932).
T17 construct: Bought recombinant soluble receptor; also called insulin-like growth factor-1 soluble receptor
Described as above.

Assay [18] addresses T18, rHuman EGF R/Fc Chimera, CF (R&D Systems Cat#344-ER) (human, UniProt P00533 25-645).
T18 construct: Bought recombinant protein; also called epidermal growth factor receptor; Fc part of the bought chimera not given
Described as above.

Assay [19] concerns the target T10, rHuman HGF R/c-MET/Fc Chimera, CF (R&D …). The assay is described as follows: ECL multispot (MSD) assay, antigen spotted on plate; blank spot of this row 351.
In assay [20] the target is T11, rHuman CD44/Fc Chimera, CF (R&D Systems …). Described as above.
Assay [21] deals with T12, rHuman Erythropoietin R/Fc Chimera, CF …. Described as above.
For assay [22], the target named is T13, rHuman Notch-1/Fc Chimera, CF (R&D …). The assay is described as above.
Assay [23] deals with T14, rHuman ErbB2/Fc Chimera, CF (R&D …). The assay is described as above.
Assay [24] addresses T15, rHuman P-Cadherin/Fc Chimera, CF (R&D …). The description is as above.
Assay [25] addresses T16, Recombinant Human DLL4 (R&D Systems …). The description is as above.
Assay [26] has as its target T17, rHuman IGF-1 sR, (IGF-1 sR), CF (R&D …). The assay is described as above.
Assay [27] deals with T18, rHuman EGF R/Fc Chimera, CF (R&D …). The description is as above.

B1: Fab VH1-46_IGHD6-6*01_IGHJ1*01 S102A/S103P/S104F/H111F (APFF) & L6_IGKJ1*01 S30N (Fab, V domains shown)
VH: QVQLVQSGAEVKKPGASVKVSCKASGYTFTSYYMHWVRQAPGQGLEWMGIINPSGGSTSYAQKFQGRVTMTRDTSTSTVYMELSSLRSEDTAVYYCAREEYAPFSAEYFQFWGQGTLVTVSS
VL: EIVLTQSPATLSLSPGERATLSCRASQSVNSYLAWYQQKPGQAPRLLIYDASNRATGIPARFSGSGSGTDFTLTISSLEPEDFAVYYCQQRSNWPPWTFGQGTKVEIKR
notes: Tested as Fab made in E. coli: VH joined to CH1 from Plasmid A (His6 and Flag tags), VL joined to kappa CL from Plasmid C; also called APFF / S30N
In the case of B1, the ECL signal amounted to 525 in assay [1]; 296 in assay [2]; 175000 in assay [3]; 241 in assay [4]; 396 in assay [5]; 400 in [6]. Further, the ECL signal in assay [7] stood at 297; in assay [8], 362; in [9] it was 437.

B2: Fab VH1-46_IGHD6-6*01_IGHJ1*01 S102A/S103P/S104F/H111F (APFF) & L6_IGKJ1*01 S30P (Fab, V domains shown)
VH: QVQLVQSGAEVKKPGASVKVSCKASGYTFTSYYMHWVRQAPGQGLEWMGIINPSGGSTSYAQKFQGRVTMTRDTSTSTVYMELSSLRSEDTAVYYCAREEYAPFSAEYFQFWGQGTLVTVSS
VL: EIVLTQSPATLSLSPGERATLSCRASQSVPSYLAWYQQKPGQAPRLLIYDASNRATGIPARFSGSGSGTDFTLTISSLEPEDFAVYYCQQRSNWPPWTFGQGTKVEIKR
notes: Fab made in E. coli: VH cloned into Plasmid A (CH1, His6 and Flag tags), kappa VL into Plasmid C (kappa CL); also called APFF / S30P
For B2, the ECL signal turned out to be 383 in assay [10]; 411 in [11]; 418 in assay [12]; 346 in assay [13]; 358 in [14]; 413 in assay [15]. Besides, the figures for the ECL signal in assay [16], in assay [17] and in assay [18] were 1260, 312 and 385, respectively.

B3: Fab VH1-46_IGHD6-6*01_IGHJ1*01 S102A/S103P/S104F/H111F (APFF) & L6_IGKJ1*01 S30G (Fab, V domains shown)
VH: QVQLVQSGAEVKKPGASVKVSCKASGYTFTSYYMHWVRQAPGQGLEWMGIINPSGGSTSYAQKFQGRVTMTRDTSTSTVYMELSSLRSEDTAVYYCAREEYAPFSAEYFQFWGQGTLVTVSS
VL: EIVLTQSPATLSLSPGERATLSCRASQSVGSYLAWYQQKPGQAPRLLIYDASNRATGIPARFSGSGSGTDFTLTISSLEPEDFAVYYCQQRSNWPPWTFGQGTKVEIKR
notes: Fab made in E. coli: VH cloned into Plasmid A (CH1, His6 and Flag tags), kappa VL into Plasmid C (kappa CL); also called APFF / S30G
B3: the ECL signal in assay [19] came to 263; in assay [20], 343; in assay [21], 480; in [22], 346; in assay [23], 260; in assay [24] it was 397. In addition, the ECL signal in assay [25] was determined as 178000; in assay [26], 304; in assay [27], 298.
